Assay results from US7326418B2, “Identification of novel factors that block programmed cell death or apoptosis by targeting JNK” (University of Chicago, priority 2001, dated 2008).

Molecular target: T1, MKK3b (Homo sapiens, UniProt P46734)
T1 construct: expressed in transfected cells; host or cells: HEK-293; anti-FLAG immunoprecipitate
T1 sequence (P46734 1-347): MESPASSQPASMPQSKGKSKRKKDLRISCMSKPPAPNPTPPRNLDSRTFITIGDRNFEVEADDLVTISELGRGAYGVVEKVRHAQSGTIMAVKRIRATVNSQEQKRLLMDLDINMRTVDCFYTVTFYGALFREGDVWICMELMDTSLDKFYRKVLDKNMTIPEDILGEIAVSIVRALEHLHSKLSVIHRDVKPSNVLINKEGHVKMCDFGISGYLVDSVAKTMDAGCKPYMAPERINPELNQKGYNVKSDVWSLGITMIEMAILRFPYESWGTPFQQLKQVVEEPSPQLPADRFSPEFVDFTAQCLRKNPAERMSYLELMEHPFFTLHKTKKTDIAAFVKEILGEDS
Assay: Kinase assay of immunoprecipitated FLAG-MKK3b with recombinant Gadd45β proteins
Assay type: biochemical
Conditions: in vitro, even at high concentrations
Description: Next, the functional consequences, in vitro, of the physical interactions of Gadd45β with kinases in the JNK pathway were assessed. Murine and human, full-length Gadd45J3 proteins were purified from E. coli as GST-Gadd45β and His6-tagged Gadd45β (His6 disclosed as SEQ ID NO: 46), respectively, according to standard procedures. Prior to employing these proteins in in vitro assays, purity of all recombinant polypeptides was assured by >98%, by performing Coomassie blue staining of SDS polyacrylamide gels. Then, the ability of these proteins, as well as of control GST and His6-EF3 (His6 disclosed as SEQ ID NO: 46)proteins, to inhibit kinases in the JNK pathways was monitored in vitro. FLAG-tagged JNKK2, JNKK1, MKK3, and ASK1 were immunoprecipitated from transiently transfected 293 cells using anti-FLAG antibodies and pre-incubated for 10 minutes with increasing concentrations of recombinant proteins, prior to the addition of specific kinase substrates (i.e. GST-JNK1 with JNKK1 and JNKK2; GST-p38[…] with MKK3; GST-JNNK1 or GST-JNKK2 with ASK1). […] These findings indicate that, upon binding to Gadd45β, JNKK2 is effectively inactivated.
A question was whether Gadd45β inhibited active MKK7, in vitro. FLAG-MKK7 was immunoprecipitated from TNFα-treated or untreated 293 cells, and kinase assays were performed in the presence of purified His6-Gadd45β (His6 disclosed as SEQ ID NO: 46), GST-Gadd45β, or control proteins (FIG. 28d; see also FIG. 28g). […] Consistent with the in vivo findings (FIG. 27), the inhibitory activity of Gadd45β was specific. […] Indeed, the effects of Gadd45β on MKK7 phosphorylation by TNFα may be due inhibition of the MKK7 ability to auto-phoshorylate and/or to serve as substrate for upstream kinases. Altogether, the findings identify MKK7 as a target of Gadd45β, and of NF-[…]B, in the JNK cascade. Of interest, MKK7 is a selective activator of JNK, and its ablation abolishes JNK activation by TNFα. Thus, blockade of MKK7 is sufficient on its own to explain the effects of Gadd45β on JNK signaling—i.e. its specific and near-complete suppression of this signaling. […]

B1: GST-Gadd45β: full-length murine Gadd45β directly fused to GST, purified from E. coli (protein)
chain: MTLEELVASDNAVQKMQAVTAAVEQLLVAAQRQDRLTVGVYEAAKLMNVDPDSVVLCLLAIDEEEEDDIALQIHFTLIQSFCCDNDIDIVRVSGMQRLAQLLGEPAETLGTTEARDLHCLLVTNCHTDSWKSQGLVEVASYCEESRGNNQWVPYISLEER
modifications: left off: a dimerising Fc or GST
notes: full-length murine Gadd45β directly fused to GST, purified from E. coli
- effect on MKK3/MKK3b kinase activity: neither GST-Gadd45β nor His6-Gadd45β (His6 disclosed as SEQ ID NO: 46) had significant effects

B2: Gadd45β: purified recombinant His6-tagged Gadd45β protein; also used generically for the recombinant Gadd45β proteins (protein, UniProt O75293 1-160, looked up)
Growth arrest and DNA …: MTLEELVACDNAAQKMQTVTAAVEELLVAAQRQDRLTVGVYESAKLMNVDPDSVVLCLLAIDEEEEDDIALQIHFTLIQSFCCDNDINIVRVSGMQRLAQLLGEPAETQGTTEARDLHCLLVTNPHTDAWKSHGLVEVASYCEESRGNNQWVPYISLQER
modifications: His6 tag
notes: purified recombinant His6-tagged Gadd45β protein; also used generically for the recombinant Gadd45β proteins
- effect on MKK3/MKK3b kinase activity: did not hamper

B3: His6-Gadd45β: human full-length Gadd45β purified from E. coli as His6-tagged protein (protein, UniProt O75293 1-160, looked up)
chain: B2 Growth arrest and DNA …
modifications: full-length His6 tag
notes: human full-length Gadd45β purified from E. coli as His6-tagged protein
- effect on MKK3/MKK3b kinase activity: neither GST-Gadd45β nor His6-Gadd45β (His6 disclosed as SEQ ID NO: 46) had significant effects
